B1: Tripartite motif-containing protein 5 (Homo sapiens), Q9C035-4 (parent)
chain: MASGILVNVKEEVTCPICLELLTQPLSLDCGHSFCQACLTANHKKSMLDKGESSCPVCRISYQPENIRPNRHVANIVEKLREVKLSPEGQKVDHCARHGEKLLLFCQEDGKVICWLCERSQEHRGHHTFLTEEVAREYQVKLQAALEMLRQKQQEAEELEADIREEKASWKTQIQYDKTNVLADFEQLRDILDWEESNELQNLEKEEEDILKSLTNSETEMVQQTQSLRELISDLEHRLQGSVMELLQGVDGVIKRTENVTLKKPETFPKNQRRVFRAPDLKGMLEVFRELTDVRRYWGWSAMARSRFTATSTSQIQAILLPQPPK
partner: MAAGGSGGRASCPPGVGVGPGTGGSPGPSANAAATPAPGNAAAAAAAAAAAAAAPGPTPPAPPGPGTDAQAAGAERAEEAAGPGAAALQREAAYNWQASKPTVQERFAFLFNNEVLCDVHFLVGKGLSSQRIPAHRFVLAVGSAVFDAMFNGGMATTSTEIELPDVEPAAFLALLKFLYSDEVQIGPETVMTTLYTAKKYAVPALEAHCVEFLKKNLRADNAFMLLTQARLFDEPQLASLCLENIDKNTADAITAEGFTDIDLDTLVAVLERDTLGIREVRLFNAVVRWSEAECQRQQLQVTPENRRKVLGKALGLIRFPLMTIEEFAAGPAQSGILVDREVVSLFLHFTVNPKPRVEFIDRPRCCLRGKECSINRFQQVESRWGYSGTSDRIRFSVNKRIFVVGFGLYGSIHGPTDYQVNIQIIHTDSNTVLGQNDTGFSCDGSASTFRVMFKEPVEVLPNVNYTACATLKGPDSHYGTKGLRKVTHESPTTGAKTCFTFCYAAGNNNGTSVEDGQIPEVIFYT

Variants of: B1
Conditions: with btbd2_human BTBD2, Q9BX70

effect of a mutation on the interaction | Variant
decreasing interaction | C15A;C18A
